Experimental data reported in the Immune Epitope Database (IEDB).
pKd: −log10 of the molar value.

What was measured:
Assay in all cases: IEDB peptide-MHC binding, purified MHC/competitive/radioactivity; filed as Kd, often an IC50 or EC50 that approximates it; ≥ and ≤ were set here for values at or beyond the usual limits of such assays
[1] = target: HLA-A*02:06
[2] = target: HLA-A*02:03
[3] = target: HLA-A*02:02
[4] = target: HLA-A*33:01
[5] = target: HLA-A*03:01
[6] = target: HLA-A*68:01
[7] = target: HLA-A*31:01
[8] = target: HLA-A*11:01
[9] = source organism: Vaccinia virus WR
[10] = source organism: Dengue virus 4 Philippines/H241/1956
[11] = source organism: Dengue virus 2 Jamaica/1409/1983
[12] = source organism: HIV-1 M:B_ARV2/SF2
[13] = source organism: Dengue virus 1 Brazil/97-11/1997
[14] = source organism: SARS coronavirus Tor2
[15] = source organism: Dengue virus 3 Martinique/1243/1999
[16] = source organism: Lassa virus Josiah

Sequence | pKd [4, 9] | pKd [5, 9] | pKd [6, 9] | pKd [7, 9] | pKd [8, 9] | also measured
SIENKHQRRL |  |  |  |  |  | pKd [1, 9]: ≤ 4.27; pKd [2, 9]: ≤ 4.68; pKd [3, 9]: 4.77
QMYRKFSRCT |  |  |  |  |  | pKd [1, 9]: 4.83; pKd [2, 9]: 5.64; pKd [3, 9]: ≤ 4.59
NLYKVYNGI |  |  |  |  |  | pKd [1, 9]: 6.09; pKd [2, 9]: 7.21; pKd [3, 9]: 6.39
TVDFTDCRT |  |  |  |  |  | pKd [1, 9]: 6.47; pKd [2, 9]: ≤ 4.57; pKd [3, 9]: 5.01
ALYYVHSLL |  |  |  |  |  | pKd [1, 9]: 5.49; pKd [2, 9]: 4.82; pKd [3, 9]: 7.58
LLFLNDMGKV |  |  |  |  |  | pKd [2, 10]: 8.17
VMKDGRVLV |  |  |  |  |  | pKd [2, 11]: 7.29
GVSGNIVSSV |  |  |  |  |  | pKd [2, 10]: 7.51
MVAGGLLLAA |  |  |  |  |  | pKd [1, 10]: 7.72
NQATVLMGL |  |  |  |  |  | pKd [1, 11]: 7.97
LVGPTPVNI |  |  |  |  |  | pKd [2, 12]: 7.75; pKd [3, 12]: 7.42
NQAAILMGL |  |  |  |  |  | pKd [1, 13]: 7.90
CAAYYFMKFR |  |  |  |  |  | pKd [4, 14]: 6.85; pKd [5, 14]: 6.68; pKd [6, 14]: 7.15; pKd [7, 14]: 7.96; pKd [8, 14]: 7.19
FLSGKGLGKT |  |  |  |  |  | pKd [2, 13]: 7.49
SIRPRVTKQY | ≤ 4.15 | 6.05 | 5.10 | 5.20 | 5.04 | 
VSMMSMYGK | ≤ 4.63 | 7.82 | 8.30 | 6.95 | 8.93 | 
SVLNDILSR |  |  |  |  |  | pKd [4, 14]: 5.25; pKd [5, 14]: 5.11; pKd [6, 14]: 5.37; pKd [7, 14]: 5.94; pKd [8, 14]: 6.83
GFDAWFSQR |  |  |  |  |  | pKd [4, 14]: 6.18; pKd [5, 14]: 4.75; pKd [6, 14]: 5.37; pKd [7, 14]: 6.88; pKd [8, 14]: ≤ 4.52
TTIKPVSYK |  |  |  |  |  | pKd [4, 14]: 6.84; pKd [5, 14]: 8.69; pKd [6, 14]: 8.82; pKd [7, 14]: 6.99; pKd [8, 14]: 9.12
AQPCSDKAYK |  |  |  |  |  | pKd [4, 14]: 5.02; pKd [5, 14]: 6.50; pKd [6, 14]: 5.20; pKd [7, 14]: 5.95; pKd [8, 14]: 7.17
SMFEPEREKV |  |  |  |  |  | pKd [2, 11]: 6.85

Sequence | pKd [4, 9] | pKd [5, 9] | pKd [6, 9] | pKd [7, 9] | pKd [8, 9] | also measured
PLHILASNK | ≤ 4.11 | 6.79 | 4.94 | 4.90 | 5.19 | 
KATTQIAPK | ≤ 4.41 | 7.34 | 5.15 | 7.06 | 8.32 | 
QLCDHRLMSA |  |  |  |  |  | pKd [2, 15]: 7.27
VVENPTIQK |  |  |  |  |  | pKd [4, 14]: ≤ 4.19; pKd [5, 14]: 6.48; pKd [6, 14]: 6.39; pKd [7, 14]: 4.73; pKd [8, 14]: 8.12
YSSMTSDSK | ≤ 4.67 | 5.70 | 8.62 | 5.31 | 7.98 | 
ILRNYLRLY | 5.52 | 6.19 | ≤ 4.49 | 5.08 | 5.34 | 
LLAISAVYFK | 5.99 | 8.47 | 8.60 | 6.42 | 7.92 | 
QIFNEDTSYY | ≤ 4.15 | 5.85 | 7.93 | ≤ 4.45 | 6.14 | 
IINFTISMR | 7.01 | 7.38 | 8.42 | 8.65 | 7.31 | 
SFSNTIQSYK | 4.91 | 6.93 | 6.75 | 6.66 | 6.89 | 
RMGMGVTYL |  |  |  |  |  | pKd [2, 15]: 6.94
WLSYFVASFR |  |  |  |  |  | pKd [4, 14]: 7.87; pKd [5, 14]: 7.25; pKd [6, 14]: 9.31; pKd [7, 14]: 9.34; pKd [8, 14]: 7.84
KLMEEYLRR | ≤ 4.66 | 7.94 | 5.72 | 8.25 | 8.01 | 
VFLILCFTIK |  |  |  |  |  | pKd [4, 14]: 5.39; pKd [5, 14]: 6.77; pKd [6, 14]: 6.02; pKd [7, 14]: 6.21; pKd [8, 14]: 6.43
GLILFVLALY | ≤ 4.57 | ≤ 4.66 | 6.34 | ≤ 4.36 | 5.14 | 
VSVDAMIHK | ≤ 4.50 | 5.74 | 5.84 | 5.15 | 8.61 | 
DAYNIADAAR | 9.09 | 4.80 | 8.89 | 7.72 | 6.21 | 
RLNNPVILSK | ≤ 4.26 | 7.93 | 5.35 | 5.81 | 7.92 | 
LLFMILTVA |  |  |  |  |  | pKd [2, 13]: 7.53
SVLRAVLPR |  |  |  |  |  | pKd [4, 16]: 6.27; pKd [5, 16]: 6.68; pKd [6, 16]: 7.18; pKd [7, 16]: 7.97; pKd [8, 16]: 8.05
